{
  "source": "the nanobody polyreactivity screen of Harvey et al. (2022)",
  "data": [
    {"assay": "yeast display, Sf9 membrane polyspecificity reagent, FACS + sequencing; frameworks hold sequencing errors", "in_short": "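Galactose-induced (36–48 hours) yeast carrying a synthetic nanobody display library were exposed to 10% biotinylated, detergent-solubilized Sf9 membrane reagent at 4 °C for 1 hour. FACS followed streptavidin microbead enrichment, using low and high (top ~1%) gates for expression (anti-HA) and reagent binding (streptavidin). Colony PCR, MiSeq 2 × 250 sequencing and CDR-length filtering followed. Labels for polyreactivity reflect the gate of origin.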", "values": [
      {"sequence": "QVQLVESGGGLVQAGGSLRLSCAASGSTLIANAMGWYRQAPGKERELVAGITYRGGDITTYADSVKGRFTISRDTAKNTVYLQMNSLKPEDTAVYYCAARVVWPTWARGGYWGQGTQVTVSS", "polyreactivity (PSR sort gate)": "low polyreactivity"},
      {"sequence": "QVQLVESGGGLVQAGGSLRLSCAASGSTLIDYTMGWYRQAPGKERELVAAISSGGSTNYADSVKGRFTISRDNAKNTVYLQMNSLKPEDTAVYYCAKDHQRYFYGFWEHPRYDYWGQGTQVTVSS", "polyreactivity (PSR sort gate)": "high polyreactivity"},
      {"sequence": "QVQLVESGGGLVQAGGSLRLSCAASGSTLIEYAKGWYRQAPGKERELVARISKSGDSTYYADSVKGRFTISRDNAKNTVYLQMNSLKPEDTAVYYCAKYHRDGFYRSYWFRYDYWGQGTQVTVSS", "polyreactivity (PSR sort gate)": "low polyreactivity"},
      {"sequence": "QVQLVESGGGLVQAGGSLRLSCAASGSTLIWNVMGWYRQAPGKERELVATISSGGRTYYADSVKGRFTISRDNAKNTVYLQMNSLKPEDTAVYYCAARSRRGVSYRSYRSFDYWGQGTQVTVSS", "polyreactivity (PSR sort gate)": "high polyreactivity"},
      {"sequence": "QVQLVESGGGLVQAGGSLRLSCAASGSTLKYNAMGWYRQATGKERELVAAISTSGGNTYYADSVKGRFTISRDNAKNTVYLQMNSLKPEDPAVYYFAKVLGYYYYDYDSWGQGTQVTLSS", "polyreactivity (PSR sort gate)": "low polyreactivity"},
      {"sequence": "QVQLVESGGGLVQAGGSLRLSCAASGSTLKYYTMGWYRQAPGKERELVAAISWSGGRTYYADSVKGRFTISRDNAKNTVYLQMNCLKPEDTAVYYCAKYPGYRSSGRISYEYDYWGQGTQVTVSS", "polyreactivity (PSR sort gate)": "high polyreactivity"},
      {"sequence": "QVQLVESGGGLVQAGGSLRLSCAASGSTLKYYTMGWYRQAPGKERELVAAISWSGGRTYYADSVKGRFTISRDNAKNTVYLQMNSLKPEDTAVYYCNARRTFPRYDRKYESWGQGTQVTVSS", "polyreactivity (PSR sort gate)": "high polyreactivity"},
      {"sequence": "QVQLVESGGGLVQAGGSLRLSCAASGSTLNVNAMGWYRQAPGKERELVAAITSGGSTYYADSVKGRFTISRDNAKNTVYLQMNSLKPEDTAVYYCNKRRSWRPTYPFGGSGFYYWGQGTQVTVSS", "polyreactivity (PSR sort gate)": "low polyreactivity"},
      {"sequence": "QVQLVESGGGLVQAGGSLRLSCAASGSTLNYYAMAWYRQAPGKEMELVAAITWSGGSTSYADSVKGRFTISRDNAKNTVYLQMNSLKPEDTAVYYCATDFPTVQLYDTDWLSSDMGYWGQGTQVTVSW", "polyreactivity (PSR sort gate)": "low polyreactivity"},
      {"sequence": "QVQLVESGGGLVQAGGSLRLSCAASGSTLNYYAMGWYRQAPGKERELVAAITWSGGSTSYADSVKGRFTISRDNAKNTVYVQMNSLKPEDTAVYYGATDFPTVQLYDTDWLSSDMGYWGQGTQVTVSS", "polyreactivity (PSR sort gate)": "low polyreactivity"},
      {"sequence": "QVQLVESGGGLVQAGGSLRLSCAASGSTLNYYAMGWYRQAPGKEWELVAAITWSGGSTSYADSVKGRFTISRDNAKNTVYLQMNSLKPEDTAVYYCATDFPTVQLYDTDWLSSDMGYWGQGTQVTVSS", "polyreactivity (PSR sort gate)": "low polyreactivity"},
      {"sequence": "QVQLVESGGGLVQAGGSLRLSCAASGSTLPGNTMGWYRQAPGKERELVAAISKSGGTTYYADSVKGRFTISRDYAKNTVYLQMNSLKPEDTAVYYCAAKPWVWVYARYGKHPSYDYWGQGTQVTVSS", "polyreactivity (PSR sort gate)": "high polyreactivity"},
      {"sequence": "QVQLVESGGGLVQAGGSLRLSCAASGSTLPPNAMGWSRQAPGKERELVAAISYSGDSTHYADSVKGRFTISRDNAKNTVYLQMNSLKPEDTAVYYCYASSPGAVPVYDYDYWGQGTQVTVSS", "polyreactivity (PSR sort gate)": "low polyreactivity"},
      {"sequence": "QVQLVESGGGLVQAGGSLRLSCAASGSTLPRYTMGWYRQAPGKERELVAAISFSGSSTYYADSVKGRFTISRVNAKNTVYLQMNSLKPEDTAVYYCRYGYNYWGQGTQVTVSS", "polyreactivity (PSR sort gate)": "high polyreactivity"},
      {"sequence": "QVQLVESGGGLVQAGGSLRLSCAASGSTLPTNAMGWYRQAPGKERELVASNDQSGGSTYADSVKGRFTISRDNAKNTVYLQMNSLKPEDTAVYYCNARDSLRYYTYYFEYYRVGYEYWGQGTQVTVSS", "polyreactivity (PSR sort gate)": "high polyreactivity"},
      {"sequence": "QVQLVESGGGLVQAGGSLRLSCAASGSTLQSYAMGWYRQAPGKERELVAGIRISGGNTRYADSVKGRFTISRDNAKNTVYLQMNSLKPEDTAVYYCAALTGFYNLRPYGYWGQGTQVTVSS", "polyreactivity (PSR sort gate)": "high polyreactivity"},
      {"sequence": "QVQLVESGGGLVQAGGSLRLSCAASGSTLRGNAMGWYRQAPGKERELVAAISWSGGSTYYADSVKGRFTISRDNAKNTVYLQMNSLKPEDTAVYYRATASPSTRYGRLGDYWGQGTQVTVSS", "polyreactivity (PSR sort gate)": "low polyreactivity"},
      {"sequence": "QVQLVESGGGLVQAGGSLRLSCAASGSTLRPYAMGWYRQAPGKERELVAAISKSGASTYYADSVKGRFTISRDNAQNTVYLQMNSLKPEDTAVYYCNAGRGTGETLYGYDYWGQGTQVTVSS", "polyreactivity (PSR sort gate)": "high polyreactivity"},
      {"sequence": "QVQLVESGGGLVQAGGSLRLSCAASGSTLRPYAMGWYRQAPGKERELVAAISKSGASTYYADSVKGRVTISRDNANNTVYFQMNSLKPEDTAVNYCNAGRGTWETLYGYDYWGQGTQVTVSS", "polyreactivity (PSR sort gate)": "high polyreactivity"},
      {"sequence": "QVQLVESGGGLVQAGGSLRLSCAASGSTLRRYAMGWYRQAPGKEMELVAAISGSGDSTYYADSVKGRFTISRDNAKNTVYLQMNSLKPEDTAVYYCNAVYAFNGYDYWGQGTQVTVSS", "polyreactivity (PSR sort gate)": "low polyreactivity"},
      {"sequence": "QVQLVESGGGLVQAGGSLRLSCAASGSTLRRYAMGWYRQAPGKERELVAAITRGSSTTYADSVKGRFTISRDNAKNTVYLQMNSLKPEDTAVYYCNTYFSRNFDYWGQGTQVTVSS", "polyreactivity (PSR sort gate)": "high polyreactivity"},
      {"sequence": "QVQLVESGGGLVQAGGSLRLSCAASGSTLRYYAMGWYRQAPGKEREMVADITSSGNTNYADSVKGRFTISRDNAKNTVYLQMNSLKPEDTAVYYCAGDSANYQWYLSWQKDDYWGQGTQVTVSS", "polyreactivity (PSR sort gate)": "low polyreactivity"},
      {"sequence": "QVQLVESGGGLVQAGGSLRLSCAASGSTLSIYAMGWYRQAPGKERELVAAISSIGGSTYYADSVKGRFTISRDNAKNTVYLQMNSLKPEDTAVYYCAAELYGGYYYWGQGTQVTVSS", "polyreactivity (PSR sort gate)": "high polyreactivity"},
      {"sequence": "QVQLVESGGGLVQAGGSLRLSCAASGSTLSIYAMGWYRQAPGKERELVATIRWSAGRTSYADSVKGRFTISRDNAMNTVYLQMNSLKPEDTAVYSCNAVRYRYYFYWTGKSYDYWGQGTQVTVSS", "polyreactivity (PSR sort gate)": "high polyreactivity"},
      {"sequence": "QVQLVESGGGLVQAGGSLRLSCAASGSTLSQNAMGWYRQAPGKEREFVADISGSGDSTYYADSVKGRFTISRDNAKNTVYLQMNSLKPEDTAVYYCATPSPHVGLKWEYDYWGQVTQVTVSS", "polyreactivity (PSR sort gate)": "low polyreactivity"},
      {"sequence": "QVQLVESGGGLVQAGGSLRLSCAASGSTLSRYAMGWYRQAPGKERELVATITRRGGSTFYADSVKGRFTISRDNAKNTVYLQMNSLKPEDTAVYYCAVGRLFWGQGTQVTVSS", "polyreactivity (PSR sort gate)": "low polyreactivity"},
      {"sequence": "QVQLVESGGGLVQAGGSLRLSCAASGSTLSSNAMGWYRQAPGKERELVAAINRRGGTYYADSVKGRFTISRDNAKNTVYLQMNSLKPEDTAVYYCAAASPYHEYDYWGQGTQVTVSS", "polyreactivity (PSR sort gate)": "low polyreactivity"},
      {"sequence": "QVQLVESGGGLVQAGGSLRLSCAASGSTLSVYAMGWYRQAPGKERELVAVISRSGGSTYYADSVKGRFTISRDNAKNTVYLQMNSLKPEDTAVYYCAARGRRTGDYDYWGQGTQVTVSS", "polyreactivity (PSR sort gate)": "high polyreactivity"},
      {"sequence": "QVQLVESGGGLVQAGGSLRLSCAASGSTLTWNAMGWYRQAPGKERELVATISYSGSSTYYADSVKGRFTISRDNAKNSVYLQMFSLKPEDTAGYYCNAQELAYGHGFDSWGLGTQVTVSS", "polyreactivity (PSR sort gate)": "low polyreactivity"},
      {"sequence": "QVQLVESGGGLVQAGGSLRLSCAASGSTLVDYAMGWYRQAPGKERELVAAISASGGTTYYADSVKGRFTISRDNAKNTVYLQMNSLKPEDTAVYYCAKYHYYYFPYDYWGQGTQVTVSS", "polyreactivity (PSR sort gate)": "low polyreactivity"},
      {"sequence": "QVQLVESGGGLVQAGGSLRLSCAASGSTLVPNAMGWYRQAPGKERELVATISFSSGRTYYADSVKGRFTISRDNAKNTVYLQMNSLKPEDTAVYYCNARSFGPTESRYDYWGQGTQVTVSS", "polyreactivity (PSR sort gate)": "high polyreactivity"},
      {"sequence": "QVQLVESGGGLVQAGGSLRLSCAASGSTLVSNAMGGYRQAAGKERELVAAITSGGSTYYADSVKGRFTISRDNAKNTVYLQMNSRKPEDTAVYYCNADRTRGYQRYDYWGQGTQVTVSS", "polyreactivity (PSR sort gate)": "high polyreactivity"},
      {"sequence": "QVQLVESGGGLVQAGGSLRLSCAASGSTLVSYAMGWYRQSPGKERELVATISWRGGSTYYADSVKGRFTISRDNAKNTVYLQMNSLKPEDTAVYYCAADLWHSQYYYGYEYWGQGTQVTVSS", "polyreactivity (PSR sort gate)": "low polyreactivity"},
      {"sequence": "QVQLVESGGGLVQAGGSLRLSCAASGSTLVTHAMGWYRQAPGKERELVAGISRSGGSTYYADSVKGRFTISRDNAKNTVYLQMNSLKPEDTAVYYCAARNYRYLYRMEYWGQGTQVTVSS", "polyreactivity (PSR sort gate)": "high polyreactivity"},
      {"sequence": "QVQLVESGGGLVQAGGSLRLSCAASGSTLVTNAMGWYRQAPGKERELVAAITFSGGTTYYADSVKGRFTISRDNAKNTVYLQMNSLKPEDTAVYYCAAEIWLEYVGYDYWGQGTQVTVSS", "polyreactivity (PSR sort gate)": "high polyreactivity"},
      {"sequence": "QVQLVESGGGLVQAGGSLRLSCAASGSTLVTNAMGWYRQAPGKERELVAAITFSGGTTYYADSVTGRFTISRDNAKNTVYVQMNSLKPEDTAVYYCAAEIWLEYVGYDYWGQGTQVTVSS", "polyreactivity (PSR sort gate)": "high polyreactivity"},
      {"sequence": "QVQLVESGGGLVQAGGSLRLSCAASGSTLVTYAMGWYRQAPGKERELVAAISWRGGSTYYADSVKGRFTISRDNAKNTVELQMNSLKPEDTAVYYCNKLRAYKESETYYYWGQGTQVTVSS", "polyreactivity (PSR sort gate)": "low polyreactivity"},
      {"sequence": "QVQLVESGGGLVQAGGSLRLSCAASGSTLWSNTMGWYRQAPGKERELVDAISSGGGSTYADSVKGRFTISRDNAKNTVYLQMNSLKPEDTAVYYCAASAYYYRHSSWHRRDYWGQGTQVTVSS", "polyreactivity (PSR sort gate)": "high polyreactivity"},
      {"sequence": "QVQLVESGGGLVQAGGSLRLSCAASGSTLWTYAMGWYRQAPGKERELVAAISGGGGSTYYADSVKGRFTISRDNAKNTVYLQMNSLKPEDTAVYYCAAVTWVGWGQRRRDYWGHGTQVTVSS", "polyreactivity (PSR sort gate)": "high polyreactivity"},
      {"sequence": "QVQLVESGGGLVQAGGSLRLSCAASGSTLWVYAMGWYRQAPGKERELVAAITQSTGDTHYADSVKGRFTISRDNAKNTVYLQMNSLKPEDTAVYYCAADSYLSVYDPYGYWGQGTQVTVSS", "polyreactivity (PSR sort gate)": "low polyreactivity"}
    ]}
  ]
}
